Holding throughout (test): SPR
A general note: Surface plasmon resonance follows binding to a sensor surface in real time, without labels.

Test [1] concerns the target Glu-Gly-Arg-chloromethylketone active site-blocked activated protein C (EGR-APC).
Test [2] deals with Full-length recombinant factor V W1920R (FV Nara) (human, UniProt P12259 29-2224, W1920R).
Test [3] has as its target Full-length wild-type recombinant factor V (FV-WT) (human, UniProt P12259 29-2224).
Test [4] addresses Full-length recombinant factor V R506Q (FV Leiden) (human, UniProt P12259 29-2224, R506Q).

Sequence of Full-length recombinant factor V R506Q (FV Leiden) (P12259 29-2224 R534Q): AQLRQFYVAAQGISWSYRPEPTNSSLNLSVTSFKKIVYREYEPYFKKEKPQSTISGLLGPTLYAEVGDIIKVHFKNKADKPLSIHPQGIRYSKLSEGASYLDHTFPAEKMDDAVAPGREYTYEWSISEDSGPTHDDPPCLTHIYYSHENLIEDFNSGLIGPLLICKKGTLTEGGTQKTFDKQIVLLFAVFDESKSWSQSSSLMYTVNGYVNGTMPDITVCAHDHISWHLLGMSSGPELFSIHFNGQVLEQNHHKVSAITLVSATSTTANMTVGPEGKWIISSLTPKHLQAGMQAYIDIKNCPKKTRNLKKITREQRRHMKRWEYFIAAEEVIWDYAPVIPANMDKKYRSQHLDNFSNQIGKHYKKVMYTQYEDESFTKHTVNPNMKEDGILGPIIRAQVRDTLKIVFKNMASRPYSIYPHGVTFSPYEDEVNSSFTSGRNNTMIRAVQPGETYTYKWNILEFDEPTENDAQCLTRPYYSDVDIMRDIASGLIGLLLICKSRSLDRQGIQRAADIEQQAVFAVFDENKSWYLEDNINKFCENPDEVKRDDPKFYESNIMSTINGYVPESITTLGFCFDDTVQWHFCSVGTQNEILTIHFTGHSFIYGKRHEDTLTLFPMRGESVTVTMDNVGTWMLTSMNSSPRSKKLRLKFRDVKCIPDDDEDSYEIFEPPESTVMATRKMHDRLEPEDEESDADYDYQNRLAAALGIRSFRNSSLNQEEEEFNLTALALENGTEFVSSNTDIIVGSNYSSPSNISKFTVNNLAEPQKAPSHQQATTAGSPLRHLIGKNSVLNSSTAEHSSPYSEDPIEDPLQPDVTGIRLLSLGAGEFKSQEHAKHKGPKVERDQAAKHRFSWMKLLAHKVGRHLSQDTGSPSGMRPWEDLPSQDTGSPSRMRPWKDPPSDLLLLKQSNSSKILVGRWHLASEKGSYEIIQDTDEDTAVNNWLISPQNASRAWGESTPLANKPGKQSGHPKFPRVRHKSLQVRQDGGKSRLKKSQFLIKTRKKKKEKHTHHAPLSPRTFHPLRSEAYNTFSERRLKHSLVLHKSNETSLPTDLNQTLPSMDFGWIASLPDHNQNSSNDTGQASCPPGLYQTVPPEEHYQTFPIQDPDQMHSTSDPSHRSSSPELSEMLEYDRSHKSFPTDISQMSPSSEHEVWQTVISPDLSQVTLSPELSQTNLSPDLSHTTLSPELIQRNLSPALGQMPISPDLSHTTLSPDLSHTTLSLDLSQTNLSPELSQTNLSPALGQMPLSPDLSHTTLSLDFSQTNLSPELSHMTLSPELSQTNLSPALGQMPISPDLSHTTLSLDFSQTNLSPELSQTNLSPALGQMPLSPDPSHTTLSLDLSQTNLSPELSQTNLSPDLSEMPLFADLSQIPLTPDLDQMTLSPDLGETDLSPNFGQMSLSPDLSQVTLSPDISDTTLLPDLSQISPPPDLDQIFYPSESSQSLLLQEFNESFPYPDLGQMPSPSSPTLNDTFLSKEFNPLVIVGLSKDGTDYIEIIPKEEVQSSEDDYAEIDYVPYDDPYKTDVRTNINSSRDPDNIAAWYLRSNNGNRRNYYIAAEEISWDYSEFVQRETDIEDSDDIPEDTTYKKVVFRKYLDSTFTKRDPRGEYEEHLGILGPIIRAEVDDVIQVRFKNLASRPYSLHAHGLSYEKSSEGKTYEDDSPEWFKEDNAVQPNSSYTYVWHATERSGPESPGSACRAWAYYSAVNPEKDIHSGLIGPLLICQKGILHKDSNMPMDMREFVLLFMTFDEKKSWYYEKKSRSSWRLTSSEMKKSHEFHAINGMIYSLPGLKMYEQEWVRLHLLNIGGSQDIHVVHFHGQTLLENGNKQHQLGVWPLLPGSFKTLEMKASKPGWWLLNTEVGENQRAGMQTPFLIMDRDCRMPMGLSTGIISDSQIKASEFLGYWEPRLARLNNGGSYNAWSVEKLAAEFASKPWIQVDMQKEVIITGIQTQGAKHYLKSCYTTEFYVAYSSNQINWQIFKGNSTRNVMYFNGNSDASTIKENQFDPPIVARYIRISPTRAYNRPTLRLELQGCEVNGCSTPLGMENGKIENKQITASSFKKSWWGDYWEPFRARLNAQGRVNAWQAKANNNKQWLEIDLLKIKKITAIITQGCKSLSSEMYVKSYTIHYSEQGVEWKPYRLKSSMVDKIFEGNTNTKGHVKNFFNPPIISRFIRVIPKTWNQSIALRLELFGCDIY
Sequence of Full-length recombinant factor V W1920R (FV Nara) (P12259 29-2224 W1948R): as the sequence (P12259 29-2224 R534Q) above, with Q506R, W1920R counted along it
Sequence of Full-length wild-type recombinant factor V (FV-WT) (P12259 29-2224): as the sequence (P12259 29-2224 R534Q) above, with Q506R counted along it

In test [1], “Full-length wild-type recombinant factor V (FV-WT) (from UniProt P12259 29-2224) (natural protein)” came in with a Kd of 10.7 nM, a koff of 0.00359 s⁻¹ and a kon of 337000 M⁻¹ s⁻¹.
In test [1], “Full-length recombinant factor V A2086D (FV Besançon) (from UniProt P12259 29-2224) (natural protein)” yielded a Kd of 20.3 nM, a koff of 0.00268 s⁻¹ and a kon of 132000 M⁻¹ s⁻¹.
Consider “Full-length recombinant factor V R506Q (FV Leiden) (from UniProt P12259 29-2224) (natural protein)”, for which, in test [1], the Kd turned out to be 19.1 nM, the koff was 0.00457 s⁻¹ and the kon turned out to be 239000 M⁻¹ s⁻¹.
In test [1], “Full-length recombinant factor V W1920R (FV Nara) (from UniProt P12259 29-2224) (natural protein)” came in with a Kd of 12.8 nM, a koff of 0.00433 s⁻¹ and a kon of 338000 M⁻¹ s⁻¹.

B1: Protein S (natural protein, UniProt P07225 42-676, looked up)
chain: ANSLLEETKQGNLERECIEELCNKEEAREVFENDPETDYFYPKYLVCLRSFQTGLFTAARQSTNAYPDLRSCVNAIPDQCSPLPCNEDGYMSCKDGKASFTCTCKPGWQGEKCEFDINECKDPSNINGGCSQICDNTPGSYHCSCKNGFVMLSNKKDCKDVDECSLKPSICGTAVCKNIPGDFECECPEGYRYNLKSKSCEDIDECSENMCAQLCVNYPGGYTCYCDGKKGFKLAQDQKSCEVVSVCLPLNLDTKYELLYLAEQFAGVVLYLKFRLPEISRFSAEFDFRTYDSEGVILYAESIDHSAWLLIALRGGKIEVQLKNEHTSKITTGGDVINNGLWNMVSVEELEHSISIKIAKEAVMDINKPGPLFKPENGLLETKVYFAGFPRKVESELIKPINPRLDGCIRSWNLMKQGASGIKEIIQEKQNKHCLVTVEKGSYYPGSGIAQFHIDYNNVSSAEGWHVNVTLNIRPSTGTGVMLALVSGNNTVPFAVSLVDSTSEKSQDILLSVENTVIYRIQALSLCSDQQSHLEFRVNRNNLELSTPLKIETISHEDLQRQLAVLDKAMKAKVATYLGGLPDVPFSATPVNAFYNGCMEVNINGVQLDLDEAISKHNDIRAHSCPSVWKKTKNS
With B1, in test [2], the Kd was found to be 26.2 nM, the koff came to 0.00382 s⁻¹ and the on-rate constant (kon) stood at 145000 M⁻¹ s⁻¹. Also, in test [3], the dissociation constant (Kd) came out at 7.56 nM, the koff was determined as 0.00393 s⁻¹ and the kon amounted to 520000 M⁻¹ s⁻¹. Also, in test [4], the Kd was found to be 5.26 nM, the off-rate constant (koff) is 0.00374 s⁻¹ and the on-rate (kon) was 711000 M⁻¹ s⁻¹.

A word on the Kd: it is the equilibrium constant for the complex coming apart. A word on the koff: it is the rate constant with which the complex falls apart. As usually defined, the kon is the second-order rate constant of association.

Source of the values: publication PMC10279549 (Blood Advances, 2023).
